This test concerns the target human IL-23R (human) (UniProt Q5VWK5). In words: BIAcore, antibody immobilized on CM5 chip. A general note: Surface plasmon resonance follows binding to a sensor surface in real time, without labels.

Positions count from the first letter of the chain named. In names and notes the source's numbering stands.

The term Kd denotes the equilibrium constant for the complex coming apart. Low readings indicate higher affinity, high ones lower affinity.

Chain of human IL-23R (human) (Q5VWK5 24-353 L310P limits assumed): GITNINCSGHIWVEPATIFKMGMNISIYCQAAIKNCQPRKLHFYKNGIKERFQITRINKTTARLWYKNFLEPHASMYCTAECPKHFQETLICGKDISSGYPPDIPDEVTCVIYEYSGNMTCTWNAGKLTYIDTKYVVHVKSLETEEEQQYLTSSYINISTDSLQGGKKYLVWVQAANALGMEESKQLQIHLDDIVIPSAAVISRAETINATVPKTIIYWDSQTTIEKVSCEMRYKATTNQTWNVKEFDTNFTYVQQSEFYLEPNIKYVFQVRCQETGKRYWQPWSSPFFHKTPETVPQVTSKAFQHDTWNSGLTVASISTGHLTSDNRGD

B1: humanized 20D7 antibody with hu20D7-a heavy chain variable domain (antibody, part only; not given: unnamed light chain, V domains shown, part only)
VH: QVQLVQSGAEVKKPGASVKVSCKASGYTFTNYAMNWVRQAPGQGLEWMGWINTYTGEPTYNEKFKGRVTMTTDTSTSTAYMELRSLRSDDTAVYYCARGGGYDEDYFDYWGQGTLVTVSS
B1 yielded a Kd of 4.3 nM and a fold reduction of binding affinity against mouse 20D7 of 50 fold.

B2: humanized 20D7 antibody with hu20D7-b heavy chain variable domain (T72L) (antibody, part only; not given: unnamed light chain, V domains shown, part only)
VH: B1 VH with N61S, E62D, K63D, T72L
For the molecule B2, the Kd came to 0.36 nM.

B3: humanized 20D7 antibody with hu20D7-c heavy chain variable domain (T72L, M70F) (antibody, part only; not given: unnamed light chain, V domains shown, part only)
VH: B1 VH with N61S, E62D, K63D, M70F, T72L
B3 showed a Kd of 0.23 nM and a fold improvement of binding affinity against the simple humanization (hu20D7-a) of 20 fold.
